Experimental findings from PMC314469, “Protein Interaction Networks by Proteome Peptide Scanning” (PLoS Biology, 2004) are described below.

What all share (assay): SPOT array
Test [1] concerns the target T1, Myo5 SH3 (MYO5_YEAST), Q04439.
T1 chain: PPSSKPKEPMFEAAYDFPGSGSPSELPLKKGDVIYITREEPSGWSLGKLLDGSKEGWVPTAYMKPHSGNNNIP

In test [2] the target is T2, Boi1 SH3 (BOI1_YEAST), P38041.
T2 chain: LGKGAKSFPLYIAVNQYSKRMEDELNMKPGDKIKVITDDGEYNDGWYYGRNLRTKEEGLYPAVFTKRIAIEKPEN

Test [3] addresses T3, Yfr024 SH3 (LSB3_YEAST), P43603.
T3 chain: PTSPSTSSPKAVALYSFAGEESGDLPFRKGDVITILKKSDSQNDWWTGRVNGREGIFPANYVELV

The target in test [4] is Sho1 SH3 (SHO1_YEAST), P40073.
Sequence of Sho1 SH3 (SHO1_YEAST), P40073 (P40073 295-366): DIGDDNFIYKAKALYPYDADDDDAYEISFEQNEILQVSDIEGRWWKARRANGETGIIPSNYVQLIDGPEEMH
In test [5] the target is T4, Yhr016c SH3 (YSC84_YEAST), P32793.
T4 chain: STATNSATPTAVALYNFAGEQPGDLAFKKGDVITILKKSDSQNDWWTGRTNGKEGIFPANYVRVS

The target of test [6] is T5, Boi2 SH3 (BOI2_YEAST), P39969.
T5 chain: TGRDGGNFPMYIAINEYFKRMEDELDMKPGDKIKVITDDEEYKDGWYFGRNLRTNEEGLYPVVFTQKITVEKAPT

Test [7] has as its target T6, Rvs167 SH3 (RV167_YEAST), P39743.
T6 chain: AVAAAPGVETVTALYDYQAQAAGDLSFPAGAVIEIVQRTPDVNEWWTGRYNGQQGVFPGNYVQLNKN

SRHLKLVPSTPMDI [YBR128C 258-271]: the normalised SPOT signal, Boehringer light units (BLU); mean over the file's lines of this peptide worked out at 362 in test [1]; 441 in test [2]; 546 in test [3]; 225 in test [4]; 40 in test [5]; 102 in test [6]. This molecule also yielded a normalised SPOT signal, Boehringer light units (BLU); mean over the file's lines of this peptide in test [7] of 83.7.
Consider SNRARYLPQNPDII [YBR195C 132-145], for which the normalised SPOT signal, Boehringer light units (BLU); mean over the file's lines of this peptide came to 244 in test [1]; 386 in test [2]; 304 in test [3]; 35.8 in test [4]; 47.2 in test [5]; 45.5 in test [6]. In test [7], the normalised SPOT signal, Boehringer light units (BLU); mean over the file's lines of this peptide is 36.2.
As for SNYSKIFPGIPISL [YOR245C 211-224], the normalised SPOT signal, Boehringer light units (BLU); mean over the file's lines of this peptide is 49.2 in test [1]; 41 in test [2]; 112 in test [3]; 27.6 in test [4]; 60.1 in test [5]; 25.9 in test [6]. Also, the normalised SPOT signal, Boehringer light units (BLU); mean over the file's lines of this peptide in test [7] was 84.8.
With ATKRKTIPVYPPVQ [YCR046C 20-33], the normalised SPOT signal, Boehringer light units (BLU); mean over the file's lines of this peptide in test [1] came to 274; in test [2] it was 263; in test [3] it was 204; in test [4], 30.2; in test [5] it was 28.1; in test [6] it was 59.9. Further, the normalised SPOT signal, Boehringer light units (BLU); mean over the file's lines of this peptide in test [7] was 49.7.
Turning to SKYNRQHPANPAAA [YPL247C 221-234], the normalised SPOT signal, Boehringer light units (BLU); mean over the file's lines of this peptide in test [1] was 189; in test [2] it was 210; in test [3], 126; in test [4] it was 65.9; in test [5], 38.8; in test [6], 48.5. In addition, the normalised SPOT signal, Boehringer light units (BLU); mean over the file's lines of this peptide in test [7] worked out at 61.3.
On to SFKTKFAPEAPDLF [YDL195W 303-316], for which the normalised SPOT signal, Boehringer light units (BLU); mean over the file's lines of this peptide in test [1] was 209; in test [2], 59.6; in test [3] it was 23.2; in test [4], 35.8; in test [5] it was 19; in test [6], 15. The molecule further had a normalised SPOT signal, Boehringer light units (BLU); mean over the file's lines of this peptide in test [7] of 46.5.
For the molecule SAKSKSRPNTPGSD [YIR007W 739-752], the normalised SPOT signal, Boehringer light units (BLU); mean over the file's lines of this peptide stood at 153 in test [1]; 1740 in test [2]; 122 in test [3]; 146 in test [4]; 0 in test [5]; 23.7 in test [6]. In test [7], this molecule yielded a normalised SPOT signal, Boehringer light units (BLU); mean over the file's lines of this peptide of 129.
As for AVGGKWEPGNPIAI [YHR113W 80-93], the normalised SPOT signal, Boehringer light units (BLU); mean over the file's lines of this peptide is 78.4 in test [1]; 41.1 in test [2]; 17.2 in test [3]; 0 in test [4]; 19.6 in test [5]; 14.1 in test [6]. In test [7], the normalised SPOT signal, Boehringer light units (BLU); mean over the file's lines of this peptide stood at 39.6.
With AVVYKLKPYIPSLS [YGR284C 61-74], the normalised SPOT signal, Boehringer light units (BLU); mean over the file's lines of this peptide in test [1] turned out to be 112; in test [2], 99.5; in test [3], 132; in test [4], 93.3; in test [5], 32.4; in test [6], 24.9. The normalised SPOT signal, Boehringer light units (BLU); mean over the file's lines of this peptide in test [7] was 31.8.
Consider SLRARNGPVPPVHI [YIR027C 235-248], for which the normalised SPOT signal, Boehringer light units (BLU); mean over the file's lines of this peptide was 208 in test [1]; 638 in test [2]; 157 in test [3]; 58.5 in test [4]; 9.1 in test [5]; 0 in test [6]. This molecule came in with a normalised SPOT signal, Boehringer light units (BLU); mean over the file's lines of this peptide in test [7] of 46.2.
In the case of AVQLKRQPAQPRES [YBR191W 125-138], the normalised SPOT signal, Boehringer light units (BLU); mean over the file's lines of this peptide in test [1] was determined as 238; in test [2] it was 1480; in test [3], 438; in test [4] it was 65; in test [5], 41.3; in test [6], 14.1. This molecule registered a normalised SPOT signal, Boehringer light units (BLU); mean over the file's lines of this peptide in test [7] of 73.8.
On to AVLIRADPLNPKVV [YCR028C 355-368], for which the normalised SPOT signal, Boehringer light units (BLU); mean over the file's lines of this peptide in test [1] is 102; in test [2] it was 15.3; in test [3], 34.4; in test [4], 13.9; in test [5], 9.5; in test [6], -0. In addition, the normalised SPOT signal, Boehringer light units (BLU); mean over the file's lines of this peptide in test [7] worked out at 12.9.
SWHPKTIPKQPMEI [YGL197W 260-273]: the normalised SPOT signal, Boehringer light units (BLU); mean over the file's lines of this peptide came out at 343 in test [1]; 26.3 in test [2]; 1300 in test [3]; 187 in test [4]; 79.8 in test [5]; 40.7 in test [6]. This molecule also showed a normalised SPOT signal, Boehringer light units (BLU); mean over the file's lines of this peptide in test [7] of 90.4.
With ATVVKNSPGDPELF [YNL187W 329-342], the normalised SPOT signal, Boehringer light units (BLU); mean over the file's lines of this peptide in test [1] is 76.2; in test [2], 644; in test [3], 27.6; in test [4], 51.1; in test [5] it was 13.3; in test [6], 17. For the same molecule, the normalised SPOT signal, Boehringer light units (BLU); mean over the file's lines of this peptide in test [7] worked out at 28.9.
